Reference: IntAct's records for PubMed 11259609

B1: Aryl hydrocarbon receptor (Homo sapiens), P35869 (parent)
chain: MNSSSANITYASRKRRKPVQKTVKPIPAEGIKSNPSKRHRDRLNTELDRLASLLPFPQDVINKLDKLSVLRLSVSYLRAKSFFDVALKSSPTERNGGQDNCRAANFREGLNLQEGEFLLQALNGFVLVVTTDALVFYASSTIQDYLGFQQSDVIHQSVYELIHTEDRAEFQRQLHWALNPSQCTESGQGIEEATGLPQTVVCYNPDQIPPENSPLMERCFICRLRCLLDNSSGFLAMNFQGKLKYLHGQKKKGKDGSILPPQLALFAIATPLQPPSILEIRTKNFIFRTKHKLDFTPIGCDAKGRIVLGYTEAELCTRGSGYQFIHAADMLYCAESHIRMIKTGESGMIVFRLLTKNNRWTWVQSNARLLYKNGRPDYIIVTQRPLTDEEGTEHLRKRNTKLPFMFTTGEAVLYEATNPFPAIMDPLPLRTKNGTSGKDSATTSTLSKDSLNPSSLLAAMMQQDESIYLYPASSTSSTAPFENNFFNESMNECRNWQDNTAPMGNDTILKHEQIDQPQDVNSFAGGHPGLFQDSKNSDLYSIMKNLGIDFEDIRHMQNEKFFRNDFSGEVDFRDIDLTDEILTYVQDSLSKSPFIPSDYQQQQSLALNSSCMVQEHLHLEQQQQHHQKQVVVEPQQQLCQKMKHMQVNGMFENWNSNQFVPFNCPQQDPQQYNVFTDLHGISQEFPYKSEMDSMPYTQNFISCNQPVLPQHSKCTELDYPMGSFEPSPYPTTSSLEDFVTCLQLPENQKHGLNPQSAIITPQTCYAGAVSMYQCQPEPQHTHVGQMQYNPVLPGQQAFLNKFQNGVLNETYPAELNNINNTQTTTHLQPLHHPSEARPFPDLTSSGFL
partner: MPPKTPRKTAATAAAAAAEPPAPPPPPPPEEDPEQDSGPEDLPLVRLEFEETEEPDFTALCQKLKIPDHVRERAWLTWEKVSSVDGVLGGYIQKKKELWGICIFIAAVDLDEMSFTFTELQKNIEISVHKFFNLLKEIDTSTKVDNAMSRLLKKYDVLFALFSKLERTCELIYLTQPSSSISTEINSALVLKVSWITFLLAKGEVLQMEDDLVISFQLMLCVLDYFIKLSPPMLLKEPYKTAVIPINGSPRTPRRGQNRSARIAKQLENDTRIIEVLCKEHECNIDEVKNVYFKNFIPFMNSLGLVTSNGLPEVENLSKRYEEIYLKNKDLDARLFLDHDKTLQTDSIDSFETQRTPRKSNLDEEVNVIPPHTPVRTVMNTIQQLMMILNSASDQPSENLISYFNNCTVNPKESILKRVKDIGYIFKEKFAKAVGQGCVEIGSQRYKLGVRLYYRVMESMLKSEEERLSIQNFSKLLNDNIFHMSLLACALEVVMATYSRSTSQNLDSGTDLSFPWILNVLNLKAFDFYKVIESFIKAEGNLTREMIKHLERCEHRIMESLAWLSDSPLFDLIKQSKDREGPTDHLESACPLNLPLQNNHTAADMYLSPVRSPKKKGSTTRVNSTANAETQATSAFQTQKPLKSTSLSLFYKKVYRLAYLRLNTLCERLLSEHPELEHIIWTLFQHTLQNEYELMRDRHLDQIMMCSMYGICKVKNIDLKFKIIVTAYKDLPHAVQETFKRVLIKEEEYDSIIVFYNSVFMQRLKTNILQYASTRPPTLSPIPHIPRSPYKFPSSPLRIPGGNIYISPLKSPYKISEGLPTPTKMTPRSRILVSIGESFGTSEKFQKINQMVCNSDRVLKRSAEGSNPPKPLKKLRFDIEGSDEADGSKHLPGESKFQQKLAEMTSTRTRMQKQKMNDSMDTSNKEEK

Variants of: B1
Settings: with rb_human RB1, P06400

Effect of a mutation on the interaction, disrupting interaction strength:
C333A
L331A
E335A
